We go through five molecules from patent US20110230370A1 (CALIFORNIA INSTITUTE OF TECHNOLOGY, published 2011).

Test [1] concerns the target ^MNMATα2f (wild-type full-length MATα2, C-terminally flag-tagged) (S. cerevisiae) (UniProt P0CY08). Description: cell-based or functional assay.
The target of test [2] is T1, Doa10myc13 (full-length, C-terminally myc13-tagged S. cerevisiae Doa10 E3 Ub ligase) (S. cerevisiae, UniProt P40318 1-1319).
T1 construct: mature; also called mycn-tagged Doa10; Doa10men
T1 sequence (looked up): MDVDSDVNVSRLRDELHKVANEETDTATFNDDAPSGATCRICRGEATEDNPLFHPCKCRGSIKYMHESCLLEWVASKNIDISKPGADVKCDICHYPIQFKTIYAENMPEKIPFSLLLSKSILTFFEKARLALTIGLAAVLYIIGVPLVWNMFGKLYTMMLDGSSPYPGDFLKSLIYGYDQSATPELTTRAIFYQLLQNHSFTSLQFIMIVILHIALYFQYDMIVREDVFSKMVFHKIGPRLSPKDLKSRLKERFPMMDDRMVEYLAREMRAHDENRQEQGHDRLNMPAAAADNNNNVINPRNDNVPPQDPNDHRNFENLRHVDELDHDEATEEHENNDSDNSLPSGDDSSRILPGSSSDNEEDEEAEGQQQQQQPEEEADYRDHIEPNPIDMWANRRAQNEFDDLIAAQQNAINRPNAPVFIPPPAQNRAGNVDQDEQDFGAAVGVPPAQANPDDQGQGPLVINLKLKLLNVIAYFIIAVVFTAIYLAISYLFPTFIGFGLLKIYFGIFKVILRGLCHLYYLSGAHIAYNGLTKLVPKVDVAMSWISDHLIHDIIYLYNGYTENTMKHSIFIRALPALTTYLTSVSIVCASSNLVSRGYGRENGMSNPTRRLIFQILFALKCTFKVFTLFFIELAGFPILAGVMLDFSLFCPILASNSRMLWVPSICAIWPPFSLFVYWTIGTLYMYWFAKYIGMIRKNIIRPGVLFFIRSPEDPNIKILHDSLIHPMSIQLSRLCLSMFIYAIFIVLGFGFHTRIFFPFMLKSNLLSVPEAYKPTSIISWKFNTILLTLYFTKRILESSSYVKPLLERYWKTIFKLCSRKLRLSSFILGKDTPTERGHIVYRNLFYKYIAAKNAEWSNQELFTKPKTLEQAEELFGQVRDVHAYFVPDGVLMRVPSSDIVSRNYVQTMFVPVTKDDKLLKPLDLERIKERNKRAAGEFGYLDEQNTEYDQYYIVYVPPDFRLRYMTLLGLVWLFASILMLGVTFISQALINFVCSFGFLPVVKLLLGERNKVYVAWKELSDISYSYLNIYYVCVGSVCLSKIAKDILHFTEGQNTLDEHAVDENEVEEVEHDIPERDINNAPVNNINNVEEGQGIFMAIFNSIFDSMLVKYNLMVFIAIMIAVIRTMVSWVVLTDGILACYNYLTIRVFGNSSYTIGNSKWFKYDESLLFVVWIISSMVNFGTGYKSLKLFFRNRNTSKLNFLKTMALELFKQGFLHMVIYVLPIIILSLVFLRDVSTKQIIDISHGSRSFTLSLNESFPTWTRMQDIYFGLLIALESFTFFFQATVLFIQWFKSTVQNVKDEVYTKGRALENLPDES
The experiment in a line: X-peptide pulldown from yeast extract, anti-myc immunoblot.

In turn, “Doa10 E3 Ub ligase (endogenous, S. cerevisiae) (from UniProt P40318 1-1319)” displayed a level of MATα2f at 0 min (end of pulse) in wild-type cells relative to doa10Δ cells (100%), Ub-reference ^35S-pulse-chase in test [1] of 55%.
For “Doa10 E3 Ub ligase (endogenous, S. cerevisiae) (from UniProt P40318 1-1319) (enzyme)”, in test [1], the in vivo half-life of ^MNMATα2f, ^35S-pulse-chase, doa10Δ ubc4Δ cells (Doa10 absent) came to 35 min and the in vivo half-life of ^MNMATα2f, ^35S-pulse-chase, ubc4Δ cells (Doa10 present) is 9 min.

B1: synthetic peptide XIFSTDTGPGGC with X=Met (peptide)
peptide: MIFSTDTGPGGC
notes: also called nsP4-derived control peptide (X=Met)
As to B1, in test [2], the binding result is listed as “no binding”.

B2: synthetic peptide XIFSTDTGPGGC with X=Arg (peptide)
peptide: RIFSTDTGPGGC
notes: also called nsP4-derived control peptide (X=Arg)
B2: the binding result in test [2] is “no binding”.

B3: synthetic peptide XIFSTDTGPGGC with X=Phe (peptide)
peptide: FIFSTDTGPGGC
notes: also called nsP4-derived control peptide (X=Phe)
On to B3, for which the binding result in test [2] was “no binding”.
